The source of these data is doi:10.1101/2024.06.04.597356.

The data set deals with CspA (UniProt P0A9X9 1-70). Put plainly: molecular beacon unfolding.
Chain of CspA (P0A9X9 whole entry): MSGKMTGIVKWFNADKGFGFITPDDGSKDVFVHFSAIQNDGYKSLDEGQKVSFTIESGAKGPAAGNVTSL

B1: 78-nt molecular beacon (structured_DNA)
DNA: AGGGTTCTTTGTGGTGTTTTTATCTGTGCTTCCCTATGCACCGCCGACGACAGTCGCTAACCTCTCGCTAAGAACCCT
Regarding B1, the binding result is “binds”.
